Tests used:
[1] = molecular target: T1, full-length human LAG-3 on CHO-S cells (CHO-S-LAG-3) (human, UniProt P18627 23-525); test: flow cytometry, blocking of Biotin-FGL1-hFc (2 ug/ml) binding to CHO-S-LAG-3 cells
T1 construct: whole, on cells
T1 sequence (looked up): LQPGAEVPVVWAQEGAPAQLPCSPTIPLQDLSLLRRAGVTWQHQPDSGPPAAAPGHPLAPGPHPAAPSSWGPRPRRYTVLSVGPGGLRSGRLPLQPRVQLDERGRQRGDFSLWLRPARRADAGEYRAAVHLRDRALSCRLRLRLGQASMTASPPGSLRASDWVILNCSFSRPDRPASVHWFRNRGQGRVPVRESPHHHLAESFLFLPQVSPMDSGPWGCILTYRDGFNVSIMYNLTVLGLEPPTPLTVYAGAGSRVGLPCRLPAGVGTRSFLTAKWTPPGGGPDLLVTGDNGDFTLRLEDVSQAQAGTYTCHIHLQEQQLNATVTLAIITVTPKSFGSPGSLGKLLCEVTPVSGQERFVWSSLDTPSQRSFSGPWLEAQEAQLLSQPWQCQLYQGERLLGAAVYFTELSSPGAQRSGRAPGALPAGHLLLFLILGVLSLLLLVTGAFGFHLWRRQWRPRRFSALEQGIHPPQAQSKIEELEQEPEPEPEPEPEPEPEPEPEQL

[2] = molecular target: T2, LAG-3 on the cell surface of SEA-activated human PBMC (activated T cells) (human, UniProt P18627 23-525); test: cell-based or functional assay
T2 sequence (looked up): T1 sequence (looked up)

[3] = molecular target: T3, LAG-3-ECD-His (LAG-3 extracellular segment with His tag, purchased from Sino Biological Inc.) (UniProt P18627 23-450); test: ELISA, plate coated with LAG-3-ECD-His (10 ng/well), anti-human IgG (Fc) detection
T3 construct: extracellular domain; not shown: His tag
T3 sequence (looked up): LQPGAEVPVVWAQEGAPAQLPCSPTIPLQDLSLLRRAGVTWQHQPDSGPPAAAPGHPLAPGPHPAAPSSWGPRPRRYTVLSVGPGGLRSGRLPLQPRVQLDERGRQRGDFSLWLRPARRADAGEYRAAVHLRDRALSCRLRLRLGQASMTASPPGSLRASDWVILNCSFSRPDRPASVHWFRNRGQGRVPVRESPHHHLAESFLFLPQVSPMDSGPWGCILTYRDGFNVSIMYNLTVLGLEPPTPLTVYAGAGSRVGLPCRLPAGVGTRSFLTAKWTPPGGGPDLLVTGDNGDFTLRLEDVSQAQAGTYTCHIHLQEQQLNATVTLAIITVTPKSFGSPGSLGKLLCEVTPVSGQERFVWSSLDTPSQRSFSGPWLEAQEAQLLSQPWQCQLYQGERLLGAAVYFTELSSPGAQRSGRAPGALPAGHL

[4] = molecular target: T4, recombinant LAG-3 (purchased from SinoBiological, Cat. No.: 16498-H08H) (human, UniProt P18627 23-450); test: SPR (Biacore 8K), antibody captured on Protein A chip, recombinant LAG-3 as analyte
T4 construct: also called human LAG-3
T4 sequence (looked up): T3 sequence (looked up)

[5] = molecular target: T2, LAG-3 on the cell surface of …; test: flow cytometry, biotinylated antibody on SEA-activated human PBMC, PE-Streptavidin detection

B1: 5E7-Hu-IgG4 (antibody, V domains shown)
VH: EVQLVESGGGLVKPGGSLRLSCAASGFTFSDDYMAWFRQAPGKRLEWVASISHGGDYIYYADNLKGRFTISRDNAKNSLYLQMNSLRAEDTAVYFCSRDRRSIDYWGQGTLVTVSS
VL: DIQMTQSPSSLSASVGDRVTITCRASQDISNYLSWYQQKPGKTIKLLIYYTSRLHSGVPSRFSGSGSGTDYTFTISSLQPEDIATYFCQQGKTLPYTFGQGTKVEIKR
modifications: Biotinylated with NHS-biotin only for the flow cytometry of Example 7 (positions not defined).
notes: also called humanized antibody No. 5E7; 5E7-Hu-IgG4-HC + 5E7-Hu-LC
With B1 the IC50 [1] was 0.0977 µg/mL, the “EC50 of enhancing the secretion of IL-2 by SEA-stimulated PBMC (Fig. 3A)” value [2] was 0.0781 µg/mL and the “EC50 of enhancing the secretion of IL-2 by SEA-stimulated PBMC (Fig. 3B)” value [2] was 0.00307 µg/mL. The EC50 [3] was 0.00908 µg/mL, the Kd [4] was 4.17 pM and the koff [4] was 1.84e-05 s⁻¹. The kon [4] was 4.41e+06 M⁻¹ s⁻¹ and the EC50 [5] was 0.0531 µg/mL.

From patent EP3932948A1 (Sunshine Guojian Pharmaceutical (Shanghai) Co., Ltd., dated 2022)
